Data reported in PMC8395317, “The Simple Method of Preparation of Highly Carboxylated Bacterial Cellulose with Ni- and Mg-Ferrite-Based Versatile Magnetic Carrier for Enzyme Immobilization” (International Journal of Molecular Sciences, 2021).

Substrate: CCCC(=O)Oc1ccc([N+](=O)[O-])cc1
Test: purified protein
Assay type: biochemical, Moesziomyces antarcticus
Details: free enzyme, 0.1 to 1.2 mmol/L pNPB, 50 mmol/L phosphate pH 7.0, 0.004% Triton X-100, 30 °C

B1: lipase B from Candida antarctica (Lipozyme CALB-L) (Moesziomyces antarcticus) (protein)
chain: LPSGSDPAFSQPKSVLDAGLTCQGASPSSVSKPILLVPGTGTTGPQSFDSNWIPLSTQLGYTPCWISPPPFMLNDTQVNTEYMVNAITALYAGSGNNKLPVLTWSQGGLVAQWGLTFFPSIRSKVDRLMAFAPDYKGTVLAGPLDALAVSAPSVWQQTTGSALTTALRNAGGLTQIVPTTNLYSATDEIVQPQVSNSPLDSSYLFNGKNVQAQAVCGPLFVIDHAGSLTSQFSYVVGRSALRSTTGQARSADYGITDCNPLPANDLTPEQKVAAAALLAPAAAAIVAGPKQNCEPDLMPYARPFAVGKRTCSGIVTP
notes: commercial recombinant enzyme (Lipozyme CALB-L, Sigma-Aldrich), used without further purification; free form
Question: B1 was tested. Which Km did it give?
Answer: 160 ± 10 µM
